Targets include SP1 (Homo sapiens, UniProt P08047); KLF13 (Homo sapiens, UniProt Q9Y2Y9); ZBTB7A (Homo sapiens, UniProt O95365); SP3 (Homo sapiens, UniProt Q02447).
Experiment in all cases: competition; 150 mM NaCl, 50 mM Tris pH 8, 0.25% NP-40, 1 mM TCEP; 4 C, 2 h; 100 ug HeLa nuclear lysate; free competitor against 200 nM immobilised SP/KLF wild-type
Settings in all cases: protein: extract

The next data set has as its target T1, VEZF1 (Homo sapiens, UniProt Q14119).
T1 sequence: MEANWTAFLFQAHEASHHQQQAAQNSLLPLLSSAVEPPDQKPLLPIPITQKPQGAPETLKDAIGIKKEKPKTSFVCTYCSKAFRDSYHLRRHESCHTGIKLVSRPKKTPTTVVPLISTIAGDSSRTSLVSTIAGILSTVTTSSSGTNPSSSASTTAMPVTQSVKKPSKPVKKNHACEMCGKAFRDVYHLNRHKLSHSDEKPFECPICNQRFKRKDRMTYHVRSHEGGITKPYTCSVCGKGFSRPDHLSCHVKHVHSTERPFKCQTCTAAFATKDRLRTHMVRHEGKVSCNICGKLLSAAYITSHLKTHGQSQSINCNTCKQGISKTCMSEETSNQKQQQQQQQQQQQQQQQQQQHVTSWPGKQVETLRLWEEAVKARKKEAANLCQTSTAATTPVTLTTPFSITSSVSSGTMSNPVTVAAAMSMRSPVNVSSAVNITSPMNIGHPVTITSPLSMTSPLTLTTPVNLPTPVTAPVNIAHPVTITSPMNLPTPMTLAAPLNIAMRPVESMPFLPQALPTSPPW

For another data set, the target named is T2, ZNF148 (Homo sapiens, UniProt Q9UQR1).
T2 sequence: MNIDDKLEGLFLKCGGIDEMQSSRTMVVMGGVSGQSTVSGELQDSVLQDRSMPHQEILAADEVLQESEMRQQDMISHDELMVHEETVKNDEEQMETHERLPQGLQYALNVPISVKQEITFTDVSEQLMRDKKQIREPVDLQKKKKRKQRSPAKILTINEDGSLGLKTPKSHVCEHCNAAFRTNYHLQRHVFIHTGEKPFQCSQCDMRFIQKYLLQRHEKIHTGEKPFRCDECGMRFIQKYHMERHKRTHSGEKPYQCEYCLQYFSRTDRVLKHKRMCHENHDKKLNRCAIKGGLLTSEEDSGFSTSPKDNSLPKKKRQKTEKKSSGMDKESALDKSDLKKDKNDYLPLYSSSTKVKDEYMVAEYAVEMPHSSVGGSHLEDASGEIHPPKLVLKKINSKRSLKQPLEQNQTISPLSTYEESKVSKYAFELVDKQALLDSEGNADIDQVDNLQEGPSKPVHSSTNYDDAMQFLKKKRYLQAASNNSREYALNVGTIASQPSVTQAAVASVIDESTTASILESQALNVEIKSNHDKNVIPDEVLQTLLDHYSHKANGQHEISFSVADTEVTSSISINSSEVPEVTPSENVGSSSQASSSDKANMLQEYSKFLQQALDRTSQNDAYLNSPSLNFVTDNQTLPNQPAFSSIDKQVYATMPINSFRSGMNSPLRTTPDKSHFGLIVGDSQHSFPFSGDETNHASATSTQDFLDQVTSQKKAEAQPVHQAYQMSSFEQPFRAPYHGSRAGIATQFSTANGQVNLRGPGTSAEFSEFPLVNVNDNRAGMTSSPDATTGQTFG

The term IC50 denotes the concentration that gives 50% inhibition. Read a low IC50 as inhibition by little substance.

SP3, sequence (Q02447 whole entry): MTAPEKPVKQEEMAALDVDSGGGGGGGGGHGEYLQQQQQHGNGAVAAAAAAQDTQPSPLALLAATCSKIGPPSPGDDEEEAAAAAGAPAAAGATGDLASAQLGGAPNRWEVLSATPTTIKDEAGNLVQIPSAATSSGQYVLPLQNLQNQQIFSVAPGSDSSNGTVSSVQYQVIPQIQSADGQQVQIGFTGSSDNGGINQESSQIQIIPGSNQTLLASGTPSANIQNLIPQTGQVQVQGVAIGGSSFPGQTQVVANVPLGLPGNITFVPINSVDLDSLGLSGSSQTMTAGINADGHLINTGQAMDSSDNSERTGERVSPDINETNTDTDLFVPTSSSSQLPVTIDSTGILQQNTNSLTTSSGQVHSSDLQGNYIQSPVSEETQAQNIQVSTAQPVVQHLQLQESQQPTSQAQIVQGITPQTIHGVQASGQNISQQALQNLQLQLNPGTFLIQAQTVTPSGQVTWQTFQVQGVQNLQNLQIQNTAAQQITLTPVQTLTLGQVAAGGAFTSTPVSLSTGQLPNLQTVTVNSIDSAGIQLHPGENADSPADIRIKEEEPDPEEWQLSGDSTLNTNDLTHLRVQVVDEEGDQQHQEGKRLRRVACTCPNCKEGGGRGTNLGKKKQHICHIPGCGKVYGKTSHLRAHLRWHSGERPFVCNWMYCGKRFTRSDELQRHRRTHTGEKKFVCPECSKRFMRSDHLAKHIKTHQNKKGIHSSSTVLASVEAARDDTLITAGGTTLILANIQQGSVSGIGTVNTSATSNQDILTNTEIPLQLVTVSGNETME
KLF13, sequence (Q9Y2Y9 whole entry): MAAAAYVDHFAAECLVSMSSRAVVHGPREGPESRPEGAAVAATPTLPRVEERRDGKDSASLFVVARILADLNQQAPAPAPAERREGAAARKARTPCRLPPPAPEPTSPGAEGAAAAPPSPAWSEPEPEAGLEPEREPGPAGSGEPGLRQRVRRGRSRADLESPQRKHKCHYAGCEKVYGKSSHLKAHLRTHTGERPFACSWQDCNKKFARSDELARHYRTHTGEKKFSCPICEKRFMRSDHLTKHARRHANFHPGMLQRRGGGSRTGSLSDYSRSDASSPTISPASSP
ZBTB7A, sequence (O95365 whole entry): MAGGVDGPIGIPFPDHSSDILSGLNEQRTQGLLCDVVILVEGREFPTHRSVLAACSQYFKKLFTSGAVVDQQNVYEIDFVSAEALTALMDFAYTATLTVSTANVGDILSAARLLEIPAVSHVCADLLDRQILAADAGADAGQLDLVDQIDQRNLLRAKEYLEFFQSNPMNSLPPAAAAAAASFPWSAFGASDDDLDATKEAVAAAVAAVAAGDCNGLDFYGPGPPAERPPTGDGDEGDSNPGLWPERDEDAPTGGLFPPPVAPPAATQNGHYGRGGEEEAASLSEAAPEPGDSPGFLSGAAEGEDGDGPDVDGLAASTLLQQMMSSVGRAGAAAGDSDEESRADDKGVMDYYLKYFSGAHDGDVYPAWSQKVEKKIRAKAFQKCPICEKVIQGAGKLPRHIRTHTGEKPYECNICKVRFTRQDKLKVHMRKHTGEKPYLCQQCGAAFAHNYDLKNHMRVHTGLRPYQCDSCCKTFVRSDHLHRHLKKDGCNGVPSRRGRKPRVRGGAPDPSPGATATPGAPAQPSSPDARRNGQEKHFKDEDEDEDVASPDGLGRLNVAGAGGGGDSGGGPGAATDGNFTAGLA
SP1, sequence (P08047 whole entry): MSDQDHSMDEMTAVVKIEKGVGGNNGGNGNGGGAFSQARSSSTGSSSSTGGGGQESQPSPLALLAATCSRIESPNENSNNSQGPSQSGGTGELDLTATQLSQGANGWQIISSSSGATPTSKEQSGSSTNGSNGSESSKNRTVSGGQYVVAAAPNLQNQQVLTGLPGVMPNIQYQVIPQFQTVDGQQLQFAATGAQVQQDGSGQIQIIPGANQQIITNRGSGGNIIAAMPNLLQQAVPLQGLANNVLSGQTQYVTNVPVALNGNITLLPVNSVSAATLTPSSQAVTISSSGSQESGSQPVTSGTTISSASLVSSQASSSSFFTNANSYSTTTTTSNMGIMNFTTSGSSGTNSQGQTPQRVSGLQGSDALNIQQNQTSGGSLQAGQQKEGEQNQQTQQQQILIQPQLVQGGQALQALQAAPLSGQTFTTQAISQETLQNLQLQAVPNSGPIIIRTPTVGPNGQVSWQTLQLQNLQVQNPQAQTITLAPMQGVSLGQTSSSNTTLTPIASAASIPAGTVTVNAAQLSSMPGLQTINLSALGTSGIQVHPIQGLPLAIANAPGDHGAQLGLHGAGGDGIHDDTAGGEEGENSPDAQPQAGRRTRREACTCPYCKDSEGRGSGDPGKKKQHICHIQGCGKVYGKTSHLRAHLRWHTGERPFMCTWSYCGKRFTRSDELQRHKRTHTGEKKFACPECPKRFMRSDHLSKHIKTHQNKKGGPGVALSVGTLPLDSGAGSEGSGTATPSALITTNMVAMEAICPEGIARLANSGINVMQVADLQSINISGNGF

B1: SP/KLF wild-type (dsDNA)
DNA 1: GAGAGCCCCGCCCCCTGGCT
DNA 2: AGCCAGGGGGCGGGGCTCTC
For the molecule B1, the IC50 with SP1 came out at 192 nM; with KLF13 it was 86.2 nM; with ZBTB7A it was 263 nM; with VEZF1, 270 nM; with ZNF148 it was 164 nM; with SP3, 147 nM.

For the origin of these results see article PMC5916898, “Global profiling of protein–DNA and protein–nucleosome binding affinities using quantitative mass spectrometry”.
